Test results: patent US8889130B2, “Treatment of osteoarthritis and pain” (Abbvie Inc., priority 2011, dated 2014)

B1: DVD2-Ig: DVD-Ig as DVD1-Ig but with linkers ADAAP (light chain) and AKTTPP (heavy chain) (antibody)
VH: MQLSGLTSEDSAMYFCVRFPTGNDYYAMDYWGQGTSVTVSSAKTTPPQIQLVQSGPELKKPGETVKISCKASGYTFRNYGMNWVKQAPGKDLKRMAWINTYTGESTYADDFKGRFAFSLETSASTAYLQINNLKNEDTATYFCARGIYYYGSSYAMDYWGQGTSVTVSS
VL: PVEADDAATYYCQQNNEDPFTFGSGTKLEIKRADAAPNIQMTQTTSSLSASLGDRVTISCRASQDISNCLNWYQQKPDGTVKLLIYYTSRLHSGVPSRFSGSGSGTDYSLTISNLEQEDIATYFCQQGKTLPYAFGGGTKLEINR
B2: 10G11: mouse anti-mouse IL-1β monoclonal antibody (clone 10G11) from IL-1α/β double KO mice (antibody, V domains shown)
VH: EVQLQQSGPELVKPGTSVKMSCKTSGYTFTSYVMHWVKQKPGQGLEWIGYIIPYNDNTKYNEKFKGKATLTSDKSSSTAYMELSSLTSEDSAVYYCARRNEYYGSSFFDYWGQGTTLTVSS
VL: DIQMTQSPASLSASVGETVTITCRGSGILHNYLVWYQQKQGKSPQLLVYSAKILADGVPSRFSGSGSGTQYSLKINSLQPEDFGSYYCQHFWSTPFTFGSGTKLEIKR
modifications: heavy chain variable domain of 10G11; light chain variable domain of 10G11
notes: mouse anti-mouse IL-1β monoclonal antibody (clone 10G11) from IL-1α/β double KO mice

Assays:
[1] = test system: IL-1α, IL-1β, or both IL-1α and IL-1β; experiment: Functional homogeneity: antigen binding in solution by SEC; conditions: 120-minute incubation at 37° C. with antigen in equal molar ratio
Procedure: Because DVD2-Ig binding protein was purified by Protein A chromatography instead of target-specific affinity chromatography, any potential misfolded and/or mismatched VL/VH domains, if present, can be assessed by binding studies against the two different antigens. Such binding analysis was conduced by size exclusion liquid chromatography (SEC). DVD2-Ig binding protein, alone or after a 120-minute incubation period at 37° C. with IL-1α, IL-1β, or both IL-1α and IL-1β, in equal molar ratio, were applied to the column. Each of the antigens was also run alone as controls. […] In the presence of both IL-1α and IL-1β, there was a further and complete shift of the DVD2-Ig binding protein signal, indicating all DVD2-Ig molecules were able to bind both antigens in a uniform fashion.

Male SV129 mice = experiment: Destabilization of medial meniscus (DMM) model of osteoarthritis, cartilage degeneration (Chambers scores); type: in vivo, mouse; conditions: Example 3.3.6 (FIG. 7); 8 weeks; mAbs 6 mg/kg alone or in combination
Excerpt: (§1) Male SV129 mice weighing approximately 30 grams, housed 5/cage, were anesthetized on Day 0 with ketamine/xylazine cocktail, administered intraperitoneally (ip), and then the medial collateral ligament was exposed by blunt dissection, and transected to reflect the meniscus toward the femur. The joint space was closed with 8-0 vicryl suture. The skin was closed with wound glue. For sham surgeries, a vertical skin incision was made over the medial aspect of the knee and the joint capsule was opened. The capsule was closed with 8-0 vicryl suture and the skin was closed with wound glue. Groups of animals were then treated with intraperitoneal (ip) injections of antibody or vehicle according to the study design table below. Two sex-matched, age-matched, and strain-matched naïve mice were also included in the study. Animals were euthanized after 8 weeks of treatment, and knee joints were harvested in 10% neutral buffered formalin.
Formalin-fixed samples were decalcified, and specimens were sectioned in the frontal plane into 15 step sections each. Each section was approximately 6 μm thick, and step sections were separated by 70 μm. All slides were stained with toluidine blue (T. Blue). Slides were assessed according to the Chambers method (Chambers et al. (2001) Arthritis Rheum 44:1455-65) for cartilage degeneration (see below) by a board-certified veterinary pathologist. Each of the four cartilage surfaces, the medial femoral condyle (MFC), the medial tibial plateau (MTP), the lateral femoral condyle (LFC), and the lateral tibial plateau (LTP), was scored from 0-6 according to the scale in the table below.
as §1, with “8-0 vicryl suture, and the” for “8-0 vicryl suture and the”, “injections of anti-mIL-1α monoclonal antibody, anti-mIL-1β (alone or in combination), mIL-1α/βDVD-Ig binding protein, or vehicle” for “injections of antibody or vehicle”, “design table below (Table 24). Animals were” for “design table below. Two sex-matched, age-matched, and strain-matched naïve mice were also included in the study. Animals were”, “weeks of treatment and knee” for “weeks of treatment, and knee”
Male SV129 mice weighing approximately 30 grams had the medial collateral ligament exposed by blunt dissection, and transected to reflect the meniscus toward the femur. The joint space was closed with 8-0 vicryl suture. The skin was closed with wound glue. For sham surgeries, a vertical skin incision was made over the medial aspect of the knee and the joint capsule was opened. The capsule was closed with 8-0 vicryl suture, and the skin was closed with wound glue. Groups of animals were then treated per os (po) or via intraperitoneal (ip) injections of vehicle or treatments according to the study design table below. Three sex-matched, age-matched, and strain-matched naïve mice were also included in the study. Animals were euthanized after 4 weeks of treatment, and knee joints were harvested in 10% neutral buffered formalin.

DMM mice = experiment: DMM model of osteoarthritis, mechanical allodynia (paw withdrawal threshold); type: in vivo, mouse; conditions: Example 5 (FIG. 12); 6 mg/kg ip twice per week for four weeks; day 28
Procedure: The DMM model also generates measurable pain in the mice. […] The efficacy of anti-IL-1α/β therapy was studied in the DMM animal model.
The potential of anti-IL-1 therapy to ameliorate pain was tested in the DMM mouse model of OA in terms of mechanical allodynia. Dosing of the combination of IL-1α and IL-1β mAbs was initiated on the day of the surgery and was repeated twice a week for 5 weeks. Animals were treated with PBS vehicle alone, with an IgG isotype control, or with a combination of anti-IL-1α and anti-IL-1β mAbs (at a dose of 6 mg/kg for each mAb). Animals were tested weekly for paw withdrawal threshold. […] This reduction in pain was seen as early as week 1 following treatment (data not shown).
To evaluate the effect of IL-1 therapy in established pain, animals in the IgG control group with established OA and mechanical allodynia were treated on day 35 with the combination of anti-IL-1α and anti-IL-1β monoclonal antibodies and the paw withdrawal threshold was tested 24 hours later (day 36).
The potential of anti-IL-1 therapy to ameliorate pain in the DMM mouse model of OA (see, above) in terms of mechanical allodynia was further evaluated. Dosing of the combination of IL-1α and IL-1β mAbs was initiated on the day of the surgery and was repeated twice a week for 4 weeks. […]

| Molecule | shift of the DVD2-Ig binding protein SEC signal in complex with antigen [1] | mean sum Chambers scores and mean maximum Chambers scores (cartilage degeneration) (Male SV129 mice) | paw withdrawal threshold (allodynia) (DMM mice) |
| --- | --- | --- | --- |
| B1 | 100% |  |  |
| B2 |  | not statistically significant | allodynic (painful) |
